Results on one sequence are retold here after patent US6602854B1, “Branched multimeric Apo A-I agonist compounds” (priority 1997, dated 2003).

One series concerns isolated human HDL. Put plainly: Formation of pre-β like particles: displacement of human ApoA-I from isolated human HDL. It counts as binding. As to conditions: increasing peptide:HDL mass ratio. Here is the method:
Human HDL was isolated by KBr density ultra centrifugation at density d=1.21 g/ml to obtain top fraction followed by Superose 6 gel filtration chromatography to separate HDL from other lipoproteins. Isolated HDL was adjusted to a final concentration of 1.0 mg/ml with physiological saline based on protein content determined by Bradford protein assay. An aliquot of 300 μl was removed from the isolated HDL preparation and incubated with 100 μl ^14C-labeled peptide 4 (0.2-1.0 μg/μl) for two hours at 37° C. Five separate incubations were analyzed including a blank containing 100 μl physiological saline and four dilutions of ^14C-labeled peptide 4: (i) 0.20 μg/μl peptide:HDL ratio=1:15; (ii) 0.30 μg/μl peptide:HDL ratio=1:10; (iii) […] peptide:HDL ratio=1:5; and (iv) 1.00 μg/μl peptide:HDL ratio=1:3. Following the two hour incubation, a 200 μl aliquot of the sample (total volume=400 μl) was loaded onto a Superose 6 gel filtration column for lipoprotein separation and analysis, and 100 μl was used to determine total radioactivity loaded. The conditions for all FPLC chromatographies were as described in Section 9.4, infra.

Another series concerns HDL. The procedure:
(§1) The association of peptide 4 (SEQ ID NO:4) with human lipoprotein fractions was determined by incubating ^14C-labeled peptide 4 (SEQ ID NO:4) with each lipoprotein class (HDL, LDL and VLDL) and a mixture of the different lipoprotein classes.
(§2) HDL, LDL and VLDL were isolated by KBr density gradient ultracentrifugation at d=1.21 g/ml and purified by FPLC on a Superose 6B column size exclusion column (chromatography was carried out with a flow rate of 0.7 ml/min. and a running buffer of 10 mM Tris (pH 8), 115 mM NaCl, 2 mM EDTA and 0.01% NaN3). ^14C-labeled peptide 4 was incubated with HDL, LDL and VLDL at a peptide:phospholipid ratio of 1:5 (mass ratio) for 2 h at 37° C. The required amount of lipoprotein (volumes based on amount needed to yield 1000 μg) was mixed with 0.2 ml of peptide stock solution (1 mg/ml) and the solution was brought up to 2.2 ml using 0.9% of NaCl according to TABLE XIII:
(§3) After incubating for 2 hr. at 37° C., an aliquot (0.1 ml) was removed for liquid scintillation counting to determine the total radioactivity, the density of the remaining incubation mixture was adjusted to 1.21 g/ml with KBr, and the samples centrifuged at 100,000 rpm (300,000 g) for 24 hours at 4° C. in a TLA 100.3 rotor using a Beckman tabletop ultracentrifuge. The resulting supernatant was fractionated by removing 0.3 ml aliquots from the top of each sample for a total of 5 fractions, and 0.05 ml of each fraction was used for liquid scintillation counting. The top two fractions contain the floating lipoproteins, the other fractions (3-5) correspond to proteins/peptides in solution.

The next series has as its system VLDL. The procedure: as §1, §2, §3

In the case of PVLDLFRELLNELLEALKQKLK [peptide 4], the “displacement of native ApoA-I from HDL (in words)” value with isolated human HDL is given as “a displacement of ApoA-I was observed which increased with increasing concentration of peptide”. Moreover, in the series with HDL (HDL/Peptide), the Recovery amounted to 91%, the “radioactivity Total” value is 89970, the “radioactivity Total before centrifugation” value amounted to 98494 and the “radioactivity in Fraction 1” value is 61510. In addition, in the series on HDL (HDL/Peptide), the “radioactivity in Fraction 2” value is given as 17620, the “radioactivity in Fraction 3” value is given as 2260, the “radioactivity in Fraction 4” value is recorded as 3130 and the “radioactivity in Fraction 5” value was 5450. In the series with HDL (incubation with isolated HDL), the “share of total radioactivity in fractions 1 and 2 (associated with lipoprotein)” value was found to be 88%. In the series with VLDL (VLDL/Peptide), the Recovery came to 75%, the “radioactivity Total” value stood at 73280, the “radioactivity Total before centrifugation” value is 97306 and the “radioactivity in Fraction 1” value was determined as 42920. In the series with VLDL (VLDL/Peptide), the “radioactivity in Fraction 2” value came to 19280, the “radioactivity in Fraction 3” value is listed as 3930, the “radioactivity in Fraction 4” value worked out at 2600 and the “radioactivity in Fraction 5” value stood at 4550. Besides, the “share of total radioactivity in fractions 1 and 2 (associated with lipoprotein)” value with VLDL (incubation with isolated VLDL) is 85%.
